This is an account of results in paper PMC6508626.

Experiment in all cases: co-IP
The target in assay [1] is Carboxy-terminally HA-tagged wildtype NS1 from pTM_NS1_HA (Dengue virus 2 (strain 16681)) (UniProt P29990).
The target in assay [2] is HA-tagged NS1 D136A (Dengue virus 2 (strain 16681)).
Assay [3] has as its target HA-tagged NS1 D197A (Dengue virus 2 (strain 16681)).
Assay [4] addresses HA-tagged NS1 E334A (Dengue virus 2 (strain 16681)).
The target in assay [5] is HA-tagged NS1 G161A (Dengue virus 2 (strain 16681)).
In assay [6] the target is HA-tagged NS1 K189A (Dengue virus 2 (strain 16681)).
The target in assay [7] is HA-tagged NS1 L153A (Dengue virus 2 (strain 16681)).
For assay [8], the target named is HA-tagged NS1 P319A (Dengue virus 2 (strain 16681)).
In assay [9] the target is HA-tagged NS1 P320A (Dengue virus 2 (strain 16681)).
In assay [10] the target is HA-tagged NS1 R336A (Dengue virus 2 (strain 16681)).
Assay [11] deals with HA-tagged NS1 R62A (Dengue virus 2 (strain 16681)).
The target of assay [12] is HA-tagged NS1 S252A (Dengue virus 2 (strain 16681)).
The target in assay [13] is HA-tagged NS1 T317A (Dengue virus 2 (strain 16681)).
Assay [14] has as its target HA-tagged NS1 W150A (Dengue virus 2 (strain 16681)).
Assay [15] addresses HA-tagged NS1 W168A (Dengue virus 2 (strain 16681)).
Assay [16] addresses HA-tagged NS1 W311A (Dengue virus 2 (strain 16681)).
For assay [17], the target named is HA-tagged NS1 W8A (Dengue virus 2 (strain 16681)).
Assay [18] addresses HA-tagged NS1 Y158A (Dengue virus 2 (strain 16681)).
Assay [19] has as its target HA-tagged NS1 Y32A (Dengue virus 2 (strain 16681)).

Take “NS4A-2K-4B polyprotein from pTM_NS4A-2K-4B (natural protein)”: the NS1—NS4A-2K-4B interaction (fold of WT) in assay [1] was 1 fold of WT; in assay [2], 0.21 fold of WT; in assay [3], 4.09 fold of WT; in assay [4], 0.18 fold of WT; in assay [5], 0.07 fold of WT; in [6], 1.33 fold of WT. The NS1—NS4A-2K-4B interaction (fold of WT) in assay [7] is 1.67 fold of WT; in [8] it was 0.37 fold of WT; in [9], 0.86 fold of WT; in assay [10], 0.26 fold of WT; in [11], 3.97 fold of WT; in assay [12], 3.18 fold of WT. Moreover, the NS1—NS4A-2K-4B interaction (fold of WT) in assay [13] is 2.08 fold of WT; in assay [14], 0.38 fold of WT; in assay [15], 0.02 fold of WT; in [16], 0.31 fold of WT; in [17] it was 0.99 fold of WT; in assay [18], 3.01 fold of WT. Moreover, the NS1—NS4A-2K-4B interaction (fold of WT) in assay [19] was 0.31 fold of WT.
